Reference: the supplement of paper PMC11246515
± gives the standard deviation of the averaged measurements.

Experiment: total protein half-life in vivo (active degradation + dilution); higher = more stable protein
[1] = E. coli NCM3722 delta-clpP delta-lon delta-hslV, growth: N-lim chemostat, doubling time 6 h
[2] = E. coli NCM3722 delta-clpP, growth: N-lim chemostat, doubling time 6 h
[3] = E. coli NCM3722 delta-hslV, growth: N-lim chemostat, doubling time 6 h
[4] = E. coli NCM3722 delta-lon, growth: N-lim chemostat, doubling time 6 h
[5] = E. coli NCM3722 delta-smpB, growth: N-lim chemostat, doubling time 6 h
[6] = wild type E. coli NCM3722, growth: C-lim chemostat, doubling time 12 h
[7] = wild type E. coli NCM3722, growth: N-lim chemostat, doubling time 6 h
[8] = wild type E. coli NCM3722, growth: N-lim chemostat, doubling time 12 h
[9] = wild type E. coli NCM3722, growth: P-lim chemostat, doubling time 6 h
[10] = wild type E. coli NCM3722, growth: P-lim chemostat, doubling time 12 h
[11] = wild type E. coli NCM3722, growth: C-lim chemostat, doubling time 3 h
[12] = wild type E. coli NCM3722, growth: C-lim chemostat, doubling time 6 h

Row | Sequence | total protein half-life in vivo [1] [h] | total protein half-life in vivo [2] [h] | total protein half-life in vivo [3] [h] | total protein half-life in vivo [4] [h] | total protein half-life in vivo [5] [h] | total protein half-life in vivo [6] [h] | total protein half-life in vivo [7] [h] | total protein half-life in vivo [8] [h] | total protein half-life in vivo [9] [h] | total protein half-life in vivo [10] [h] | total protein half-life in vivo [11] [h] | total protein half-life in vivo [12] [h]
1 | MRIGIPRERLTNETRVAATPKTVEQLLKLGFTVAVESGAGQLASFDDKAFVQAGAEIVEGNSVWQSEIILKVNAPLDDEIALLNPGTTLVSFIWPAQNPELMQKLAERNVTVMAMDSVPRISRAQSLDALSSMANIAGYRAIVEAAHEFGRFFTGQITAAGKVPPAKVMVIGAGVAGLAAIGAANSLGAIVRAFDTRPEVKEQVQSMGAEFLELDFKEEAGSGDGYAKVMSDAFIKAEMELFAAQAKEVDIIVTTALIPGKPAPKLITREMVDSMKAGSVIVDLAAQNGGNCEYTVPGEIFTTENGVKVIGYTDLPGRLPTQSSQLYGTNLVNLLKLLCKEKDGNITVDFDDVVIRGVTVIRAGEITWPAPPIQVSAQPQAAQKAAPEVKTEEKCTCSPWRKYALMALAIILFGWMASVAPKEFLGHFTVFALACVVGYYVVWNVSHALHTPLMSVTNAISGIIVVGALLQIGQGGWVSFLSFIAVLIASINIFGGFTVTQRMLKMFRKN | 6.21 ± 0.11 | 6.81 ± 0.17 | 6.66 ± 0.067 | 6.58 ± 0.37 | 6.01 ± 0.82 | 14.5 ± 0.55 | 6.23 ± 0.47 | 12.6 ± 0.42 | 6.73 ± 0.34 | 11.6 ± 1.5 | – | –
2 | MRIGMRLLLGYFLLVAVAAWFVLAIFVKEVKPGVRRATEGTLIDTATLLAELARPDLLSGDPTHGQLAQAFNQLQHRPFRANIGGINKVRNEYHVYMTDAQGKVLFDSANKAVGQDYSRWNDVWLTLRGQYGARSTLQNPADPESSVMYVAAPIMDGSRLIGVLSVGKPNAAMAPVIKRSERRILWASAILLGIALVIGAGMVWWINRSIARLTRYADSVTDNKPVPLPDLGSSELRKLAQALESMRVKLEGKNYIEQYVYALTHELKSPLAAIRGAAEILREGPPPEVVARFTDNILTQNARMQALVETLLRQARLENRQEVVLTAVDVAALFRRVSEARTVQLAEKKITLHVTPTEVNVAAEPALLEQALGNLLDNAIDFTPESGCITLSAEVDQEHVTLKVLDTGSGIPDYALSRIFERFYSLPRANGQKSSGLGLAFVSEVARLFNGEVTLRNVQEGGVLASLRLHRHFT | 6.22 ± 0.68 | 7.24 ± 0.64 | 6.18 ± 0.49 | 5.7 ± 0.74 | 5.49 ± 0.91 | 9.95 ± 2.1 | 5.81 ± 0.57 | 12.1 ± 0.34 | 6.86 ± 0.85 | 12.8 ± 1.8 | 3.16 ± 0.14 | 6.54 ± 1.2
3 | MRIHILGICGTFMGGLAMLARQLGHEVTGSDANVYPPMSTLLEKQGIELIQGYDASQLEPQPDLVIIGNAMTRGNPCVEAVLEKNIPYMSGPQWLHDFVLRDRWVLAVAGTHGKTTTAGMATWILEQCGYKPGFVIGGVPGNFEVSAHLGESDFFVIEADEYDCAFFDKRSKFVHYCPRTLILNNLEFDHADIFDDLKAIQKQFHHLVRIVPGQGRIIWPENDINLKQTMAMGCWSEQELVGEQGHWQAKKLTTDASEWEVLLDGEKVGEVKWSLVGEHNMHNGLMAIAAARHVGVAPADAANALGSFINARRRLELRGEANGVTVYDDFAHHPTAILATLAALRGKVGGTARIIAVLEPRSNTMKMGICKDDLAPSLGRADEVFLLQPAHIPWQVAEVAEACVQPAHWSGDVDTLADMVVKTAQPGDHILVMSNGGFGGIHQKLLDGLAKKAEAAQ | 5.233 ± 0.034 | – | 5.14 ± 0.089 | 6.73 ± 0.28 | 5.26 ± 0.38 | 12.236 ± 0.0033 | 5.58 ± 0.38 | 9.82 ± 1.3 | 5.99 ± 0.1 | 12.4 ± 0.71 | 2.84 ± 0.21 | –
4 | MRIHSPYPASWALAQRIGYLYSEGEIIYLADTPFERLLDIQRQVGQCQTMTSLSQADFEARLEAVFHQNTGESQQIAQDIDQSVDLLSLSEEMPANEDLLNEDSAAPVIRLINAILSEAIKETASDIHIETYEKTMSIRFRIDGVLRTILQPNKKLAALLISRIKVMARLDIAEKRIPQDGRISLRIGRRNIDVRVSTLPSIYGERAVLRLLDKNSLQLSLNNLGMTAADKQDLENLIQLPHGIILVTGPTGSGKSTTLYAILSALNTPGRNILTVEDPVEYELEGIGQTQVNTRVDMSFARGLRAILRQDPDVVMVGEIRDTETAQIAVQASLTGHLVLSTLHTNSASGAVTRLRDMGVESFLLSSSLAGIIAQRLVRRLCPQCRQFTPVSPQQAQMFKYHQLAVTTIGTPVGCPHCHQSGYQGRMAIHEMMVVTPELRAAIHENVDEQALERLVRQQHKALIKNGLQKVISGDTSWDEVMRVASATLESEA | 6.61 | – | – | – | – | – | – | – | – | – | – | –
5 | MRIIDNLEQFRQIYASGKKWQRCVEAIENIDNIQPGVAHSIGDSLTYRVETDSATDALFTGHRRYFEVHYYLQGQQKIEYAPKETLQVVEYYRDETDREYLKGCGETVEVHEGQIVICDIHEAYRFICNNAVKKVVLKVTIEDGYFHNK [P0AC73] | – | – | – | – | – | 9.85 | – | – | – | – | 2.92 ± 0.37 | 6.04 ± 0.63
